Changes are numbered by the printed parent chain. A value given as a limit tells only on which side of the number the result lay.

The text below walks through data of US20190144550A1 (Pfizer, published 2019).

Assay [1] concerns the target T1, 8-histidine tagged recombinant wild-type protein EGFRwt (UniProt P00533 25-645, limits assumed).
T1 construct: not shown: 8-histidine tag
Description: SPR, captured by anti-mouse Fc.

Assay [2] concerns the target T2, Monomeric 8-histidine tagged human EGFRvIII extracellular domain (human, UniProt P00533 298-645).
T2 construct: Analyte in all SPR assays; not shown: 8-histidine tag
Description: SPR, captured by anti-mouse Fc, 37 C. From the text: To generate human antibodies against EGFRvIII, transgenic AlivaMab mice (Ablexis LLC, San Francisco, Calif.) were immunized with alternating schedule of paraformaldehyde-fixed rat glioblastoma cell line expressing EGFRvIII, F98-npEGFRvIII (American Type Culture Collection, Manassas, Va.) and peptides (SEQ ID NO: 227: […]) directed to the junction region in EGFRvIII. Hybridomas were generated using standard techniques. To determine the binding affinity and specificity of these hybridomas to EGFRvIII, antibodies in culture supernatants were captured by anti-mouse Fc using Biacore™ T200 biosensor equipped with anti-mouse Fc coupled CM4 sensor chips (Biacore™ AB, Uppsala, Sweden—now GE Healthcare). Monomeric 8-histidine tagged human EGFRvIII extracellular domain was then injected as the analyte at 10-fold dilution series starting with top concentration 1000 nM. Affinity of anti-EGFRvIII antibodies towards human EGFRvIII was measured at 37° C.
In general terms: SPR reads the build-up and loss of mass on a sensor chip optically.

Assay [3] has as its target T3, human EGFRvIII expressed on cells (human, UniProt P00533 298-1210).
T3 construct: the F98-npEGFRvIII line was obtained from ATCC and its construct is not described; also called F98-npEGFRvIII; F98-EGFRvIII
The assay can be described thus: flow cytometry, F98-npEGFRvIII cells. (Flow cytometry measures light scatter and fluorescence of single cells or particles in a stream.)

The target of assay [4] is T3, human EGFRvIII expressed on cells. Description: flow cytometry, F98-npEGFRvIII against F98, F98-EGFRwt and A431 cells.

B1: 20B9 (antibody, V domains shown)
VH: QVTLKESGPVLVKPTETLTLTCTVSGFSLSNARMGVSWIRQPPGKALEWLGHIFSTDEKSYSTSLRGRITISKDTSRGLVVLTLTNMDPVDTATYYCARDSSNYEGYFDFWGPGFLVTVSS
VL: EIVMTQSPATLSVSPGERATLSCRVSQSIGANLAWYQQKFGQAPRLLIYGASTRATGIPVRFSGGGSGTEFTLTISSLQSEDFAIYSCQQYIYWPFTFGPGTTVDIK
notes: Hybridoma supernatant (AlivaMab mouse); captured/detected via mouse Fc
As usually defined, the Kd is a measure of binding affinity in units of concentration. A lower Kd goes with higher affinity. For orientation: koff means a measure of how fast the partners let go of each other. Read a high koff as a short-lived complex. As a reminder, the kon is a measure of how fast the partners come together. A lower kon goes with slow association. Regarding B1, the binding result in assay [1] is “no binding (tested: 1000 nM)”. In assay [2], this molecule showed a Kd of 32.1 nM, a koff of 0.0015 s⁻¹ and a kon of 46700 M⁻¹ s⁻¹. Besides, in assay [3], the “% positive” value was 98.3% and the MFI worked out at 3420. Moreover, in assay [4], the “fold MFI on EGFRvIII expressing cell line over non-expressing cell lines” value (“fold MFI … over non-expressing cell lines” below) is no less than 10 fold.

B2: 29D5 (antibody, V domains shown)
VH: QVTLKESGPVLVKPTETLTLTCTVSGFSLSNPRMGVSWLRQPPGKALEWFAHIFSTDEKSYSPSLRGRLTVSKDTSKSQVVLTLTNMDPVDTATYYCARDSSNYEGYFDYWGQGTLVTVSS
VL: KIVMTQSPATLSVSPGERATLSCRANQIVSSNLAWYQQKPGQAPRLLVFGTSTRATGIPIRFSGSGSGTEFTLTVSSLQSEDFAVYVCQQYNDWPFTFGPGTKVDIK
notes: as for B1
On to B2, for which the binding result in assay [1] was “no binding (tested: 1000 nM)”. For the same molecule, in assay [2], the equilibrium dissociation constant (Kd) turned out to be 41.6 nM, the off-rate (koff) worked out at 0.00424 s⁻¹ and the association rate constant (kon) is 102000 M⁻¹ s⁻¹. In addition, in assay [3], the “% positive” value was found to be 97.9% and the MFI was 2830. Besides, the “fold MFI … over non-expressing cell lines” value in assay [4] is no less than 10 fold.

B3: 12B2 (antibody, V domains shown)
VH: QVTLKESGPVLVKPTETLTLTCTVSGFSLSNPRMGVSWIRQPPGKALEWLGHIFSSDEKSYRLSLRSRLSISKDTSKSQVVLTMTNMDPVDTATYYCVRDSSNYGGYFDYWGQGTLVTVSS
VL: EVVMTQSPATLSVSPGERATLSCRASQSVINNLAWYQQKPGQAPRLLIYGTSTRATDIPARFSGSGSGTEFTLTISSLQSEDFAVYYCQDYNNWPFTFGPGTKVDIK
notes: as for B1
Turning to B3, in assay [1], the binding result is “no binding (tested: 1000 nM)”. In assay [2], this molecule displayed a dissociation constant Kd of 24.3 nM, an off-rate (koff) of 0.00179 s⁻¹ and an on-rate constant (kon) of 73800 M⁻¹ s⁻¹. In addition, in assay [3], the “% positive” value amounted to 97.9% and the MFI turned out to be 2750. The “fold MFI … over non-expressing cell lines” value in assay [4] was no less than 10 fold.

B4: 11F10 (antibody, V domains shown)
VH: B3 VH with T15I, S25C, S64F, V98A, N103D, G105E
VL: EIVMTQSPATLSVSPGERTTLSCRASQSVGSNLAWYQQKPGQAPRLLIYGASTRASGVPARFSGSGSGTEFTLTISSLQSEDFAVYSCQEYNNWPFTFGQGTKVEIK
notes: as for B1
Regarding B4, in assay [1], the binding result is “no binding (tested: 1000 nM)”. Moreover, in assay [2], the dissociation constant (Kd) was found to be 42.4 nM, the koff was 0.00281 s⁻¹ and the association rate constant (kon) was 66300 M⁻¹ s⁻¹. In assay [3], the “% positive” value was determined as 98% and the MFI came out at 3280. Besides, the “fold MFI … over non-expressing cell lines” value in assay [4] was no less than 10 fold.

B5: 42G9 (antibody, V domains shown)
VH: QVTLKESGPVLLKPTETLTLTCTVSGFSLSNPRMGVSWIRQPPGKALEWFAHIFSTDEKSLKLSLRSRLTLSKDTSKSQVVLTMTNMAPVDSATYYCARDSSNYEGYFDFWGQGTLVTVSS
VL: EVVLTQSPATLSVSPGERATLSCRASQSVRSNLAWYQQKSGQAPRLLIYGSTIRATGVPARFSGSGSGTEFTLTISSLQSEDFAVYYCQQYSDWPFTFGPGTKVDIK
notes: Hybridoma supernatant (AlivaMab mouse); captured/detected via mouse Fc; also called mAb 42G9
Regarding B5, in assay [1], the binding result is reported as “no binding (tested: 1000 nM)”. In assay [2], this molecule showed a Kd of 8.2 nM, a koff of 0.000563 s⁻¹ and a kon of 68800 M⁻¹ s⁻¹. Further, in assay [3], the “% positive” value worked out at 98.5% and the MFI was found to be 3250. The “fold MFI … over non-expressing cell lines” value in assay [4] was no less than 10 fold.

B6: 14C11 (antibody, V domains shown)
VH: B5 VH with L12V, S30N, P32A, L61F, K62R, L63T, A88D, S92T, F110Y, T115I
VL: EIVMTQSPATLSVSPGERATLSCRASQSVSNNLAWYQQKPGQAPRLLIYGASTRATGVPARFSGSDSGTEFSLTISSLQSEDFAVYFCQQYKDWPFTFGPGTKVEIK
notes: as for B1
As for B6, the binding result in assay [1] was “no binding (tested: 1000 nM)”. Besides, in assay [2], the affinity, expressed as Kd, was 78.5 nM; the koff worked out at 0.00593 s⁻¹; the kon turned out to be 75500 M⁻¹ s⁻¹. Besides, in assay [3], the “% positive” value was 98.2% and the MFI is 3210. The “fold MFI … over non-expressing cell lines” value in assay [4] was no less than 10 fold.

B7: 49B11 (antibody, V domains shown)
VH: B5 VH with L12V, P32V, T56S, L61I, K62R, L63R, A88D, S92T, F110Y
VL: EMEVTQSPATLSVSPGERATLSCRASQNIGSDLAWYQQQSGQAPRLLISGASTRATGVPTRFSGSGSGTDFTLTITSLQSEDFAVYYCQQYNDWPFTFGPGTKVDIK
notes: as for B1
In the case of B7, the binding result in assay [1] is listed as “no binding (tested: 1000 nM)”. In assay [2], this molecule had an equilibrium dissociation constant (Kd) of 9.1 nM, a koff of 0.000695 s⁻¹ and a kon of 76400 M⁻¹ s⁻¹. In addition, in assay [3], the “% positive” value amounted to 98.5% and the MFI was found to be 2980. Further, the “fold MFI … over non-expressing cell lines” value in assay [4] is no less than 10 fold.

B8: 21E11 (antibody, V domains shown)
VH: B5 VH with L12V, P32V, T56S, L61I, K62R, L63R, A88D, S92T
VL: B7 VL with E1D, E3V, N28S, I29V, Q39P, S40P, A43S, S49Y, T60A, Q79E
notes: as for B1
As for B8, the binding result in assay [1] was “no binding (tested: 1000 nM)”. In assay [2], binding was put at a Kd of 9.5 nM, the off-rate (koff) came out at 0.000632 s⁻¹ and the kon turned out to be 66600 M⁻¹ s⁻¹. Further, in assay [3], the “% positive” value came to 98.5% and the MFI is 3100. In addition, in assay [4], the “fold MFI … over non-expressing cell lines” value is no less than 10 fold.

B9: 12H6 (antibody, V domains shown)
VH: B5 VH with L12V, P32A, F50L, L61I, K62R, L63R, A88D, S92T, F110Y
VL: EVVMTQSPATLSVSPGERATLSCRASQGVSSNFAWYQQRPGQSPRLLLYGASTRATGVPGRFSGSGSGTENILTISSLQSEDFAIYFCQQYKDWPFTFGPGSKVDIK
notes: as for B1
As for B9, the binding result in assay [1] was “no binding (tested: 1000 nM)”. In assay [2], this molecule displayed a dissociation constant Kd of 12.4 nM, a koff of 0.000733 s⁻¹ and a kon of 59300 M⁻¹ s⁻¹. For the same molecule, in assay [3], the “% positive” value was 98.3% and the MFI came out at 3440. Also, the “fold MFI … over non-expressing cell lines” value in assay [4] is no less than 10 fold.

B10: 19A9 (antibody, V domains shown)
VH: B5 VH with K5E, L12V, P32A, L47P, K62R, A88D, S92T, F110Y
VL: EVVMTQSPATLSVSPGERATLSCRASQSVNRNLAWYQQKPGQAPRLLIFGTSTRATGIPARFSGSGSGTEFTLTIDSLQSEHSGLYYCQQYNDWPFTFGPGTKVDIK
notes: as for B1
On to B10, for which the binding result in assay [1] is “no binding (tested: 1000 nM)”. Further, in assay [2], the affinity, expressed as Kd, was 18.6 nM; the koff was 0.00104 s⁻¹; the on-rate (kon) was 55800 M⁻¹ s⁻¹. Moreover, in assay [3], the “% positive” value amounted to 98.1% and the MFI is 3100. Moreover, the “fold MFI … over non-expressing cell lines” value in assay [4] is no less than 10 fold.

B11: 46E10 (antibody, V domains shown)
VH: B5 VH with L12V, P32A, F50L, L61I, K62R, L63R, T83I, A88D, S92T, F110Y
VL: B9 VL with A9P, T10N, G28S, S30T, I85V
notes: as for B1
With B11, the binding result in assay [1] is recorded as “no binding (tested: 1000 nM)”. In assay [2], this molecule displayed a Kd of 12 nM, a koff of 0.000716 s⁻¹ and a kon of 59700 M⁻¹ s⁻¹. Moreover, in assay [3], the “% positive” value worked out at 98.7% and the MFI came out at 2990. Besides, in assay [4], the “fold MFI … over non-expressing cell lines” value was no less than 10 fold.

B12: 21E7 (antibody, V domains shown)
VH: B5 VH with K5E, L12V, P32A, L47P, K62R, A88D, S92T, F110Y
VL: B10 VL with E1D, M4L, R31S, K39N, T51S, R61S, D76N, G84A, L85V
notes: as for B1
On to B12, for which the binding result in assay [1] is reported as “no binding (tested: 1000 nM)”. In addition, in assay [2], the equilibrium dissociation constant (Kd) turned out to be 19.9 nM, the koff was found to be 0.0013 s⁻¹ and the kon worked out at 65200 M⁻¹ s⁻¹. Also, in assay [3], the “% positive” value worked out at 98.5% and the MFI was 3100. Further, in assay [4], the “fold MFI … over non-expressing cell lines” value was no less than 10 fold.

B13: 32A10 (antibody, V domains shown)
VH: B5 VH with L12V, P32A, F50L, L61I, K62R, L63R, A88D, S92T, Y96F, F110Y
VL: B9 VL with A19V, G28S, S43A, S52T, V58L
notes: as for B1
Consider B13, for which the binding result in assay [1] is given as “no binding (tested: 1000 nM)”. Moreover, in assay [2], the affinity, expressed as Kd, was 9.6 nM; the koff turned out to be 0.000626 s⁻¹; the kon is 65400 M⁻¹ s⁻¹. Also, in assay [3], the “% positive” value was 98.3% and the MFI is 3350. For the same molecule, in assay [4], the “fold MFI … over non-expressing cell lines” value was no less than 10 fold.

B14: 11B11 (antibody, V domains shown)
VH: B3 VH with P32A, R33K, G51A, S56T, Y61I, L63R, S70T, I71M, G105E
VL: B9 VL with V3L, G28S, S31T, S43A, Y49F, V58I, D105E
notes: as for B1
As to B14, the binding result in assay [1] is recorded as “no binding (tested: 1000 nM)”. For the same molecule, in assay [2], binding was put at a Kd of 21.7 nM, the koff came out at 0.00113 s⁻¹ and the kon is 52100 M⁻¹ s⁻¹. In addition, in assay [3], the “% positive” value turned out to be 98.2% and the MFI stood at 3390. The “fold MFI … over non-expressing cell lines” value in assay [4] is no less than 10 fold.
